Measured values as given in article PMC8478157 (Nature, 2021).

Biological target: the molecule itself
Assay: native gel or EMSA

B1: recombinant eGFP–GBPL3 (natural protein, Arabidopsis thaliana, UniProt F4KG14 1-1082, looked up)
chain: MRSFFGRGGKDSPADSASPSPRSYPSTSPASSSAVTGPPRPIRLVYCDEKGKFRMDPEAVATLQLVKEPIGVVSVCGRARQGKSFILNQLLGRSNGFQVASTHKPCTKGLWLWSSPIKRTALDGTEYNLLLLDSEGIDAYDQTGTYSTQIFSLAVLLSSMFVYNQMGGIDEASLDRLSLVTQMTKHIRVKASGGTSSRSELGQFSPIFVWLLRDFYLDLVEDNRKISPRDYLEIALRPVQGSGGDIGAKNEIRDSIRALFPDRECFTLVRPLNNEKDLQRLDQISLEKLRPEFGAGLDAFTKFVFEKTRPKQLGGTVMTGPILVGITQSYLDALNNGAVPTITSSWQSVEETECRRAYDSGVEAYMAAFDQSKAPEEGALREEHEEAVRKALAIFNSNAVGNGSARKKFEDLLHKDLKKKFEDYKKNAFMEADLRCTSTIQRMEKQLRAACHASNANMDNVVKVLEARLAEYEASCHGPGKWQKLSVFLQQSLEGPIYDLTKRLIDSIAIEKNSLAMKFRSVEDAMKHLKQQLDDSERYKLEYQKRYDESNNDKKKLEDIYRERITKLQGENSSLNERCSTLVKTVESKKEEIKEWIRNYDQIVLKQKAVQEQLSSEMEVLRTRSTTSEARVAAAREQAKSAAEETKEWKRKYDYAVGEARSALQKAASVQERSGKETQLREDALREEFSITLANKDEEITEKATKLEKAEQSLTVLRSDLKVAESKLESFEVELASLRLTLSEMTDKLDSANKKALAYEKEANKLEQEKIRMEQKYRSEFQRFDEVKERCKAAEIEAKRATELADKARTDAVTSQKEKSESQRLAMERLAQIERAERQVENLERQKTDLEDELDRLRVSEMEAVSKVTILEARVEEREKEIGSLIKETNAQRAHNVKSLEKLLDEERKAHIAANRRAEALSLELQAAQAHVDNLQQELAQARLKETALDNKIRAASSSHGKRSRFEDVVDMDIGEGSDRILRTNKRARSTRGDDHGPTDEGDEDFQSHQDNGEEEEEEDYRKLTVQNLKHELTKYDCGHLLLNRGHQNKKEILALYEAHVLPKKALAREEERKKQREVTSS
B1: binds.
